Data as given in the supplement of paper PMC9170038.

Columns and labels:
MS2 coat protein [1] = assay: apparent KD of MS2 coat protein; designed switch direction (-1 OFF switch, 1 ON switch): 1; higher = weaker reporter binding
Outline: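 Apparent KD, taken as the median over clusters for each design, was obtained by curve-fitting normalised cluster fluorescence. Designed RNA switches had been transcribed on Illumina chips by stalled E. coli RNA polymerase and titrated with SNAP-549-labelled MS2 coat protein, doubling from 0.7 or 1.5 nM to 3 µM.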

MS2 coat protein [2] = assay: apparent KD of MS2 coat protein; higher = weaker reporter binding; settings: Eterna round: R107
Outline: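 Illumina sequencing clusters were used for on-chip transcription of designed RNA switches. Titration with SNAP-549-labelled MS2 coat protein followed, in twofold steps from 0.7 or 1.5 nM to 3 µM in 100 mM Tris-HCl pH 7.5, 80 mM KCl, 4 mM MgCl2, without or with constant ligand. Apparent KD is each design's median of fits to normalised cluster binding curves.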

[3] = input ligand: theophylline 20 uM
[4] = input ligand: theophylline 2 mM
[5] = input ligand: tryptophan 2.4 mM

## GCCGGCUGGUGAGGAUAUGGCGCCUUGUUGGUGCCAGAAGGCAUGUCAAUUGACAUGAGGAUCACCCAUGUGUUGUCGUUGGCG [salish99_SSNG1_r04_611] (Eterna round: R96, puzzle: Same State NG 1)
MS2 coat protein [1]; input ligand: FMN 200 uM
  apparent KD of MS2 coat protein: 0.808 µM
MS2 coat protein [1]; input ligand: microRNA oligo, concentration not stated
  apparent KD of MS2 coat protein: 0.11 µM
MS2 coat protein [1]; input ligand: none
  apparent KD of MS2 coat protein: 0.459 µM

## AUUAUAGUUUAUAACGAAGUUGAUACAGAAGGAGCGUGAAUAAUCACAGGUAGGUCGCUGAUAAUACAUGAGGAUCACCCAUGUU [JR_Nu_SSArginiA_Sub018]
MS2 coat protein [2]; input ligand: arginine 13.2 mM
  apparent KD of MS2 coat protein: 0.0207 µM
MS2 coat protein [2]; input ligand: none
  apparent KD of MS2 coat protein: 0.0204 µM
MS2 coat protein [2]; [3]
  apparent KD of MS2 coat protein: 0.0319 µM
MS2 coat protein [2]; [4]
  apparent KD of MS2 coat protein: 0.0189 µM
MS2 coat protein [2]; [5]
  apparent KD of MS2 coat protein: 0.0194 µM

## AAUAACAUGAGGAUCACCCAUGUAAAAGAUACCAGAUGCAUGAUGAUCCCUUGGCAGCUUAACGCUGAUUGGAAACAAUCAGCGA [Mat - Same State Theophlline A - Mod of Eli - D9]
MS2 coat protein [2]; input ligand: arginine 13.2 mM
  apparent KD of MS2 coat protein: 0.175 µM
MS2 coat protein [2]; [3]
  apparent KD of MS2 coat protein: 0.0621 µM
MS2 coat protein [2]; [5]
  apparent KD of MS2 coat protein: 0.0147 µM

## GGUUGGUGUGGAGACAUAUUGAUCACUGAAGGAGCGGGAAUAAACCCAGGUAGGUCGCAGAGAUCCACAUGAGGAUCACCCAUGU [!0.Q]
MS2 coat protein [2]; input ligand: arginine 13.2 mM
  apparent KD of MS2 coat protein: 0.0808 µM
MS2 coat protein [2]; input ligand: none
  apparent KD of MS2 coat protein: 0.0402 µM
MS2 coat protein [2]; [3]
  apparent KD of MS2 coat protein: 0.0689 µM
MS2 coat protein [2]; [4]
  apparent KD of MS2 coat protein: 0.0866 µM
MS2 coat protein [2]; [5]
  apparent KD of MS2 coat protein: 0.0362 µM

## AUCGCACCUGGUGAUACCAGCAAUUGCUCGUGACAUGAGGAUCACCCAUGUGGCCAGUGAUGCCCUUGGCAGCAUGGUCGGUGCA [Same State - Theophylline B (Freestyle 25)]
MS2 coat protein [2]; input ligand: arginine 13.2 mM
  apparent KD of MS2 coat protein: 0.0982 µM
MS2 coat protein [2]; input ligand: none
  apparent KD of MS2 coat protein: 0.317 µM
MS2 coat protein [2]; [3]
  apparent KD of MS2 coat protein: 0.335 µM
MS2 coat protein [2]; [4]
  apparent KD of MS2 coat protein: 0.0645 µM
MS2 coat protein [2]; [5]
  apparent KD of MS2 coat protein: 0.288 µM

## AAAAUAAUGGCGGCCGCCACUAACUCAUAUACAUCAUGUACAUGAGGAUCACCCAUGUAGGUGUAUAGGACCGGGCCAUAAUUAA [39MS split4]
MS2 coat protein [2]; input ligand: arginine 13.2 mM
  apparent KD of MS2 coat protein: 0.0183 µM
MS2 coat protein [2]; [3]
  apparent KD of MS2 coat protein: 0.0222 µM
MS2 coat protein [2]; [4]
  apparent KD of MS2 coat protein: 0.0188 µM

## CGGUCGGUCGGCCGGUGAUUAUGGGAUGAAGGAGCGUGGGAAGCUACAGGUAGGUCGCAUCCGAAACAUCACGAUCACGGAUGUU [SSArg A #26Alt-Ms2 Mod]
MS2 coat protein [2]; input ligand: arginine 13.2 mM
  apparent KD of MS2 coat protein: 0.0463 µM
MS2 coat protein [2]; [3]
  apparent KD of MS2 coat protein: 0.134 µM
MS2 coat protein [2]; [4]
  apparent KD of MS2 coat protein: 0.101 µM
MS2 coat protein [2]; [5]
  apparent KD of MS2 coat protein: 0.0724 µM

## GGGCAAGAGGGAAGGAGCGUCAGCUGAGUCACAUGAGGAUCACCCAUGUCGCACAUAGUGUGACAGGUAGGUCGCCCUCUACCCU [Esceinan]
MS2 coat protein [2]; input ligand: arginine 13.2 mM
  apparent KD of MS2 coat protein: 0.0578 µM
MS2 coat protein [2]; input ligand: none
  apparent KD of MS2 coat protein: 0.124 µM
MS2 coat protein [2]; [3]
  apparent KD of MS2 coat protein: 0.167 µM
MS2 coat protein [2]; [4]
  apparent KD of MS2 coat protein: 0.107 µM
MS2 coat protein [2]; [5]
  apparent KD of MS2 coat protein: 0.0893 µM

## ACAUUUAACUGAAGGAGCGUGAUAUACAUGAGGAUCACCCAUGUGUCUUUCAUGAAUAAUUCACAGGUAGGUCGCAGACUAAUGA [JR_ExcArginiB_Sub008]
MS2 coat protein [2]; input ligand: arginine 13.2 mM
  apparent KD of MS2 coat protein: 0.0404 µM
MS2 coat protein [2]; input ligand: none
  apparent KD of MS2 coat protein: 0.0361 µM
MS2 coat protein [2]; [3]
  apparent KD of MS2 coat protein: 0.0503 µM
MS2 coat protein [2]; [4]
  apparent KD of MS2 coat protein: 0.0454 µM
MS2 coat protein [2]; [5]
  apparent KD of MS2 coat protein: 0.0376 µM

## AAUAAUAAGGCGGCCGCCACUAAACAUGAGGAUCACCCAUGUCUCGAGCGCUUGCAUUUGGGAAGUAGGACCGGGCCAAUAAUAA [Exclusion - Tryptophan B (Freestyle 4)]
MS2 coat protein [2]; input ligand: arginine 13.2 mM
  apparent KD of MS2 coat protein: 0.0145 µM
MS2 coat protein [2]; input ligand: none
  apparent KD of MS2 coat protein: 0.0214 µM
MS2 coat protein [2]; [3]
  apparent KD of MS2 coat protein: 0.0288 µM
MS2 coat protein [2]; [4]
  apparent KD of MS2 coat protein: 0.0226 µM
MS2 coat protein [2]; [5]
  apparent KD of MS2 coat protein: 0.0194 µM

## UGCUAGUGAUCGGCCGCCACUGGCACCUUGAGGAUCCUGCUAAAGUACAUGAGGAUCACCCAUGUCAGGACCGGGAUCAUCAGUG [Onveusonri]
MS2 coat protein [2]; input ligand: arginine 13.2 mM
  apparent KD of MS2 coat protein: 0.00902 µM
MS2 coat protein [2]; [3]
  apparent KD of MS2 coat protein: 0.0118 µM
MS2 coat protein [2]; [4]
  apparent KD of MS2 coat protein: 0.0109 µM

## UGGUAUGUAGGAAGGAGCGCAUACUUCACAUGAGGAUCACCCAUGUCAAGACGUGAGUCAGUGCAGGUAGGUCGCCUAGUUAUGA [Same State - Arginine B (Freestyle 21)]
MS2 coat protein [2]; input ligand: arginine 13.2 mM
  apparent KD of MS2 coat protein: 0.0312 µM
MS2 coat protein [2]; input ligand: none
  apparent KD of MS2 coat protein: 0.0429 µM
MS2 coat protein [2]; [3]
  apparent KD of MS2 coat protein: 0.0491 µM
MS2 coat protein [2]; [4]
  apparent KD of MS2 coat protein: 0.0361 µM
MS2 coat protein [2]; [5]
  apparent KD of MS2 coat protein: 0.0337 µM

## GCAUCCUAGUCGGCCGCCACUGACAUGAGGAUCACCCAUGUACAUGAGGAUCACCCAUGUUGUAGCAGGACCGGGACUAGGAUGC [SS Tryp B #17]
MS2 coat protein [2]; input ligand: arginine 13.2 mM
  apparent KD of MS2 coat protein: 0.176 µM
MS2 coat protein [2]; input ligand: none
  apparent KD of MS2 coat protein: 0.259 µM
MS2 coat protein [2]; [3]
  apparent KD of MS2 coat protein: 0.277 µM
MS2 coat protein [2]; [4]
  apparent KD of MS2 coat protein: 0.295 µM
MS2 coat protein [2]; [5]
  apparent KD of MS2 coat protein: 0.0756 µM

## AUGUAGCCGUCGACUGUACCUUAUGCCGAUACCAGCUACCCGUGAAGCCCUUGGCAGCGGGAAACAUGAGGAUCACCCAUGUCAG [theeternabot_exclusion_MS2_Theo_A_13]
MS2 coat protein [2]; input ligand: arginine 13.2 mM
  apparent KD of MS2 coat protein: 0.0196 µM
MS2 coat protein [2]; [3]
  apparent KD of MS2 coat protein: 0.0296 µM
MS2 coat protein [2]; [5]
  apparent KD of MS2 coat protein: 0.0247 µM

## AUGCAUAGCGGAAGGAGCGCAAUAGAAUGACAUGAGGAUCACCCAUGUAUGUGAUGUGGGUUGCAGGUAGGUCGCCGAGUGGUAU [Exclusion - Arginine B (Freestyle 1)]
MS2 coat protein [2]; input ligand: arginine 13.2 mM
  apparent KD of MS2 coat protein: 0.0707 µM
MS2 coat protein [2]; input ligand: none
  apparent KD of MS2 coat protein: 0.0605 µM
MS2 coat protein [2]; [3]
  apparent KD of MS2 coat protein: 0.0988 µM
MS2 coat protein [2]; [4]
  apparent KD of MS2 coat protein: 0.0626 µM
MS2 coat protein [2]; [5]
  apparent KD of MS2 coat protein: 0.055 µM

## CUAGGAAACUAGUAAGGGUGGUAUUGAGAUACCAGUACAGAAAUGUACCCUUGGCAGCUCACUGCAACAUGAGGAUCACCCAUGU [Ex Theophylline A 12]
MS2 coat protein [2]; input ligand: arginine 13.2 mM
  apparent KD of MS2 coat protein: 0.0225 µM
MS2 coat protein [2]; [3]
  apparent KD of MS2 coat protein: 0.0293 µM
MS2 coat protein [2]; [5]
  apparent KD of MS2 coat protein: 0.027 µM

## UCUUUUUUCUUUUCUUCUUUCGGUUCUUUUCGAGGACCGGUACGGCCGCCACUCGAAACAUGAGGAUCACCCAUGUUUUGGUUUU [Trypto a]
MS2 coat protein [2]; input ligand: arginine 13.2 mM
  apparent KD of MS2 coat protein: 0.0159 µM
MS2 coat protein [2]; [3]
  apparent KD of MS2 coat protein: 0.0176 µM
MS2 coat protein [2]; [4]
  apparent KD of MS2 coat protein: 0.0137 µM

## UGGGUCGGAUGAGUAAAUUGUCGGACUCAUCGAGGACCGGUACGGCCGCCACUCGGUUGUACAUGAGGAUCACCCAUGUCAGGGU [#1 Same State - Tryptophan A Attempt #17 (HarryS)]
MS2 coat protein [2]; input ligand: arginine 13.2 mM
  apparent KD of MS2 coat protein: 0.0474 µM
MS2 coat protein [2]; [3]
  apparent KD of MS2 coat protein: 0.336 µM
MS2 coat protein [2]; [4]
  apparent KD of MS2 coat protein: 0.749 µM

## GGGUACAUCGCGGCCGCCACUCAUGUAAAUACAUGAGGAUCACCCAUGUCGAUGGAGACAUCGGAGAGGACCGGGCGAUGUACCG
MS2 coat protein [2]; input ligand: arginine 13.2 mM
  apparent KD of MS2 coat protein: 0.224 µM
MS2 coat protein [2]; input ligand: none
  apparent KD of MS2 coat protein: 0.398 µM
MS2 coat protein [2]; [3]
  apparent KD of MS2 coat protein: 0.352 µM
MS2 coat protein [2]; [4]
  apparent KD of MS2 coat protein: 0.54 µM
MS2 coat protein [2]; [5]
  apparent KD of MS2 coat protein: 0.264 µM

## ACACAUGAGGAUCACCCAUGUGCGCUGGAAGGAGCGCAGAAUCAUGCAGGUAGGUCGCCAGUGCCCAUUACUAGAGGGAUAAGAG [Onriri]
MS2 coat protein [2]; input ligand: arginine 13.2 mM
  apparent KD of MS2 coat protein: 0.0445 µM
MS2 coat protein [2]; input ligand: none
  apparent KD of MS2 coat protein: 0.0758 µM
MS2 coat protein [2]; [3]
  apparent KD of MS2 coat protein: 0.101 µM
MS2 coat protein [2]; [4]
  apparent KD of MS2 coat protein: 0.102 µM
MS2 coat protein [2]; [5]
  apparent KD of MS2 coat protein: 0.0646 µM
